T1: B3GNT2 (Homo sapiens, UniProt Q9NY97)
T1 construct: The respective ORFs of candidate genes [CD274 (NM_014143), MCL1 (NM_021960), JUNB (NM_002229), and B3GNT2 (NM_006577)] were synthesized; expressed in transfected cells; host or cells: A375 melanoma cells (lentiviral ORF overexpression)
T1 sequence (Q9NY97 1-397): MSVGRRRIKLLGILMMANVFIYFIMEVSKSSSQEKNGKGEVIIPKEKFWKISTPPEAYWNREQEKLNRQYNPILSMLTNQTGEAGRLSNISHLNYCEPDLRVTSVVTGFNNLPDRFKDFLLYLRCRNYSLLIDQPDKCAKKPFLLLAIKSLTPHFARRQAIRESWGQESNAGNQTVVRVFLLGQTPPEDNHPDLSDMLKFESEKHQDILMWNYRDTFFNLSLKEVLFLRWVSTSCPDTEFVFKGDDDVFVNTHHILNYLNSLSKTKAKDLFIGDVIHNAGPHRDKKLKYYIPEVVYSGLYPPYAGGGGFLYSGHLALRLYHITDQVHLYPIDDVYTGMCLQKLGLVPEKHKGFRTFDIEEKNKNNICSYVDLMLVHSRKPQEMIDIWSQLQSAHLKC


Target: T1, B3GNT2
Assay: Co-IP of FLAG-tagged B3GNT2 followed by mass spectrometry
Type: cell-based
Set-up: C-term IgG / C-term flag: unit not given here
Settings: Co-IP followed by mass spectrometry of B3GNT2; for C-term flag / C-term IgG: C-term tag; for C-term flag / N-term FLAG: FLAG pull-down; for C-term IgG / N-term IgG: IgG pull-down; for N-term FLAG / N-term IgG: N-term tag
Procedure: Cells were plated in 10-cm cell culture dishes and grown to 60-80% confluency. For each condition, two biological replicates were harvested for co-IP. Cells were washed with PBS and 4 mL of lysis buffer (20 mM HEPES, 1% Triton X-100, 150 mM NaCl, 1 mM EDTA, and 10% glycerol) containing protease inhibitor cocktail was added. Cells were scraped and lysate was incubated at 4° C. under rotary agitation for 1 h. Lysate was centrifuged at 14,000×g for 10 min at 4° C. Supernatant was transferred to a new tube and an aliquot was taken as the input. […] For Western blots, 10 μg/mL Chicken Anti-FLAG (Aves labs ET-DY100) and IgY control (R&D Systems AB-101-C) antibodies were biotinylated (Thermo Fisher Scientific 90407) and added to the respective conditions. Lysates with antibodies were incubated at 4° C. under rotary agitation overnight. For each mL of lysate, 50 μL of Pierce Protein A/G Magnetic Beads (Mass spectrometry; Thermo Fisher Scientific 88803) or Pierce Streptavidin Magnetic Beads (Western blot; Thermo Fisher Scientific 88817) was washed twice with lysis buffer. Lysates with antibodies were added to the beads and incubated at 4° C. under rotary agitation for 4 h. Beads were washed with lysis buffer 3 times and resuspended in lysis buffer for storage. […] This solution was subjected to solid phase extraction to concentrate the peptides and remove unwanted reagents followed by injection onto a Shimadzu HPLC with fraction collector. Eight fractions were collected and after concentration were injected on a Waters NanoAcquity HPLC equipped with a self-packed Aeris 3 μm C18 analytical column 0.075 mm by 20 cm, (Phenomenex). Peptides were eluted using standard reverse-phase gradients. The effluent from the column was analyzed using a Thermo Orbitrap Elite mass spectrometer (nanospray configuration) operated in a data dependent manner for 54 minutes. […] Scaffold Q+S (Proteome Software) was used to provide consensus reports for the identified proteins.

C-term flag | C-term IgG | N-term FLAG | N-term IgG | Molecule
0 | 0 | 5 | 0 | POF1B (protein) MSSSYWSETSSSSCGTQQLPEVLQCQPQHYHCYHQSSQAQQPPEKNVVYERVRTYSGPMNKVVQALDPFNSREVLSPLKTTSSYQNLVWSDHSQELHSPTLKISTCAPSTLHITQNTEQELHSPTVKLTTYPQTTIRKYVVQNPEQEPLSQFLRGSHFFPGNNVIYEKTIRKVEKLNTDQGCHPQAQCHHHIIQQPQVIHSAHWQQPDSSQQIQAITGNNPISTHIGNELCHSGSSQICEQVIIQDDGPEKLDPRYFGELLADLSRKNTDLYHCLLEHLQRIGGSKQDFESTDESEDIESLIPKGLSEFTKQQIRYILQMRGMSDKSLRLVLSTFSNIREELGHLQNDMTSLENDKMRLEKDLSFKDTQLKEYEELLASVRANNHQQQQGLQDSSSKCQALEENNLSLRHTLSDMEYRLKELEYCKRNLEQENQNLRMQVSETCTGPMLQAKMDEIGNHYTEMVKNLRMEKDREICRLRSQLNQYHKDVSKREGSCSDFQFKLHELTSLLEEKDSLIKRQSEELSKLRQEIYSSHNQPSTGGRTTITTKKYRTQYPILGLLYDDYEYIPPGSETQTIVIEKTEDKYTCVSSLGHF
3 | 0 | 3 | 3 | TXN (protein) VKQIESKTAFQEALDAAGDKLVVVDFSATWCGPCKMIKPFFHSLSEKYSNVIFLEVDVDDCQDVASECEVKCMPTFQFFKKGQKVGEFSGANKEKLEATINELV
0 | 0 | 5 | 0 | CDSN (protein) KSIGTFSDPCKDPTRITSPNDPCLTGKGDSSGFSSYSGSSSSGSSISSARSSGGGSSGSSSGSSIAQGGSAGSFKPGTGYSQVSYSSGSGSSLQGASGSSQLGSSSSHSGNSGSHSGSSSSHSSSSSSFQFSSSSFQVGNGSALPTNDNSYRGILNPSQPGQSSSSSQTFGVSSSGQSVSSNQRPCSSDIPDSPCSGGPIVSHSGPYIPSSHSVSGGQRPVVVVVDQHGSGAPGVVQGPPCSNGGLPGKPCPPITSVDKSYGGYEVVGGSSDSYLVPGMTYSKGKIYPVGYFTKENPVKGSPGVPSFAAGPPISEGKYFSSNPIIPSQSAASSAIAFQPVGTGGVQLCGGGSTGSKGPCSPSSSRVPSSSSISSSSGLPYHPCGSASQSPCSPPGTGSFSSSSSSQSSGKIILQPCGSKSSSSGHPCMSVSSLTLTGGPDGSPHPDPSAGAKPCGSSSAGKIPCRSIRDILAQVKPLGPQLADPEVFLPQGELLNSP
3 | 0 | 2 | 0 | TAGLN (protein) ANKGPSYGMSREVQSKIEKKYDEELEERLVEWIIVQCGPDVGRPDRGRLGFQVWLKNGVILSKLVNSLYPDGSKPVKVPENPPSMVFKQMEQVAQFLKAAEDYGVIKTDMFQTVDLFEGKDMAAVQRTLMALGSLAVTKNDGHYRGDPNWFMKKAQEHKREFTESQLQEGKHVIGLQMGSNRGASQAGMTGYGRPRQIIS
3 | 0 | 2 | 0 | KCTD5 (protein) AENHCELLSPARGGIGAGLGGGLCRRCSAGLGALAQRPGSVSKWVRLNVGGTYFLTTRQTLCRDPKSFLYRLCQADPDLDSDKDETGAYLIDRDPTYFGPVLNYLRHGKLVINKDLAEEGVLEEAEFYNITSLIKLVKDKIRERDSKTSQVPVKHVYRVLQCQEEELTQMVSTMSDGWKFEQLVSIGSSYNYGNEDQAEFLCVVSKELHNTPYGTASEPSEKAKILQERGSRM
